Laboratory results: the supplement of paper PMC9170038

Assays:
Conditions in all cases: FMN input: 0 or 200 uM; Eterna round: R93 (includes R88 designs)
[1] = test system: MS2 coat protein; experiment: apparent KD of MS2 coat protein, switch ON state; designed switch direction (-1 OFF switch, 1 ON switch): 1; higher = weaker reporter binding
Outline: (§1)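 Titration buffer: 100 mM Tris-HCl pH 7.5, 80 mM KCl, 4 mM MgCl2, without or with constant ligand. Designed RNA switches transcribed on-chip from Illumina sequencing clusters received SNAP-549-labelled MS2 coat protein in twofold steps from 0.7 or 1.5 nM to 3 µM. Apparent KD is the median per design of fits to normalised cluster binding curves.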

[2] = test system: MS2 coat protein; experiment: apparent KD of MS2 coat protein, switch OFF state (with FMN for OFF switches, without FMN for ON switches); designed switch direction (-1 OFF switch, 1 ON switch): 1; higher = weaker reporter binding
Outline: as §1

[3] = test system: MS2 coat protein; experiment: apparent KD of MS2 coat protein, switch OFF state (with FMN for OFF switches, without FMN for ON switches); designed switch direction (-1 OFF switch, 1 ON switch): -1; higher = weaker reporter binding
Outline: as §1

[4] = test system: MS2 coat protein; experiment: apparent KD of MS2 coat protein, switch ON state; designed switch direction (-1 OFF switch, 1 ON switch): -1; higher = weaker reporter binding
Outline: as §1

Sequence	apparent KD of MS2 coat protein [1]	apparent KD of MS2 coat protein [2]	apparent KD of MS2 coat protein [3]	apparent KD of MS2 coat protein [4]
AUAUAUAAAAGGUAGGAUAUUCUAAAAUAAACAUGAGGAUCACCCAUGUAAAAAAAGAAACUCAUGGAGAAGGACCAUAUAUAUA [ss2 6th modifying Eli's mod of Tesla]	31.5 nM	44.5 nM	–	–
AGACAUAACAGAGAGGAUAUCCAAAAGAAAACAUGAGGAUCACCCAUGUGAAAGAAAAUAAAAUGGGAGAAGGCUCACAUACAGA [Topaz 37]	20 nM	39 nM	–	–
ACAAAACAUGAGGAUCACCCAUGUGAGAACAUGAAAGGAUAUACUAGGACGAGAGUCAAUGUAGAAGGUUCUAGAA [SS - 1]	34.6 nM	39 nM	–	–
AAACCACAUGAGGAUCACCCAUGUAAAAUAUACAUAGGAUAUGCGAAAAGAAACAAAGAAGCAGAAGGGUGAAAAA [75%, Ex sub1, 16]	36.4 nM	32.1 nM	–	–
AAAAAGUGAGGAUAUGCGAAGGCGUCUGAUAGACGAGGCUAGCAGAAGGCACAUGAGGAUCACCCAUGUGGGAA [Mat - Mod of Nando 64% 3]	–	–	98.5 nM	53.8 nM
CAAAGUGGAGGAUAUACAUGAGGAUCACCCAUGUAAGGACAAUAAAUAAGAAGAAGAAGUAGAAGGCCACUCAA [e3-2]	–	–	40.2 nM	28.9 nM
AAGAAGGCAGGAUAUACAUGAGGAUCACCCAUGUAAAAGAAAGAAGGGAAAGAGAAAAGUAGAAGGGCCAAGAA [Hedjkheperre-setpenre Takelot II]	–	–	68.4 nM	43.8 nM
AAGAAACAUGAGGAUCACCCAUGUGAGGAUAUACAAGAAAGAAAGAAAGAAAGAAGAAGUAGAAGGCACAAAGG [Gaius Valerius]	–	–	14.4 nM	31.4 nM
ACAUGACAUGAGGAUCACCCAUGUGAGGAUAUGCGAAAAAAAAAAAAAAAAAAAAUUGGCAGAAGGCACAAAAU [Jean Baudrillard]	–	–	153 nM	202 nM
AAGAAUGCAGGAUAUACAUGAGGAUCACCCAUGUAAAAGAAAGAAGGGAAAGAGAAAAGUAGAAGGGCAAAGAA [Bakare Tantamani]	–	–	47.2 nM	36 nM
AACGAAUGAGGAUAUACAAACAGAAAAAUCAGACAUAACAGACAUGAGGAUCACCCAUGUAGAAGGCAUAAACA [JR_Exc002_Sub902]	–	–	18.7 nM	25.5 nM
AAAAAGCGAGGAUAUACAUGAGGAUCACCCAUGUGAAAAAAAAAAUAAUAAAUAAAAGGUAGAAGGCGCAAAAA [V1]	–	–	87.9 nM	72 nM
AGAAAGUCAGGAUAUACAGAUAAAAAAACGAAAAAAAAUCUGUAGAAGGGACAUGAGGAUCACCCAUGUAAAGA [Mat - Exclusion 4 - Mayanna - D102]	–	–	39.2 nM	49.4 nM
AGGAAACAUGAGGAUCACCCAUGUAAGGAUAUGUGAAAGAAAAGAAAAGAAAGAAGAAACAGAAGGUACAAGAA [Qa'a]	–	–	42.4 nM	46.3 nM
AGGUAACAUGAGGAUCACCCAUGUACCAAUAAUGCAGGAUAUCGACACGAAAAUACGUGUCGAGAAGGGCAUGAAA [SS1 MT 22]	13.4 nM	–	–	–
AGUUGGCGAGGAUAUACAUGAGGAUCACCCAUGUGAGAGAAAAAAGUGAGAAAGAAAAGUAGAAGGCGCUGACC [salish99-ex3-07]	–	–	103 nM	58.3 nM
AAAAAGUCAGGAUAUCGGAAAAAAAAAAUAAAAAAAAAAAACGAGAAGGGACAUGAGGAUCACCCAUGUAUGAC [Mat - Exclusion 4 - Mayanna - D112]	–	–	41.3 nM	37.4 nM
GUGUACAGAGGAUAUACAUGAGCUAGGAAACUAGCAAGAUCACAUGAGGAUCACCCAUGUAGAAGGCUGUACAC [Ex2: 734]	–	–	16.3 nM	70 nM
AAGAAUUGAGGAUAUACAAGGAAGAAAGAAAAGAAAAGAAAACAUGAGGAUCACCCAUGUAGAAGGCAAUAGAA [EteRNA is fun!]	–	–	12.5 nM	23.5 nM
AAACAUGGAGGAUAUACAUGAGGAUCACCCAUGUGUAUAAAAAAAUAUACAAAAGAAUGUAGAAGGCCAUGAAA [Ex 3 Snow]	–	–	54.2 nM	36.1 nM
AUAGGCCUAGGAUAUACAUGAGGAUCACCCAUGUAAAUAAAUCGAUCAUGAUAAACGUGUAGAAGGAGGAAUAA [JR_Exc003_Sub206]	–	–	39.5 nM	28.8 nM
AUCUAGUGAGGAUAUCGUACAAUAUGGAAAACAUAGAGGUACGAGAAGGCACAUGAGGAUCACCCAUGUAAAAC [May 100]	–	–	36.5 nM	26.8 nM

Sequence	apparent KD of MS2 coat protein [1]	apparent KD of MS2 coat protein [2]	apparent KD of MS2 coat protein [3]	apparent KD of MS2 coat protein [4]
AUAAAACAUGAGGAUCACCCAUGUGAGGAUAUGCGAAAGAAAGAAAGAAAGAAAGAAAGCAGAAGGCACAAUAA [Amethyst 42]	–	–	32.6 nM	30.1 nM
ACCCGACAUGAGGAUCACCCAUGUAAACAAUCAUGAGGAUAUCCGGAGCAAGUGCUCCAGGGAGAAGGCAUAAAAG [Reesbema]	–	122 nM	–	–
AAAAAGUGAGGAUAUACGAGGAGAAACAACAAACAAACAAAACAUGAGGAUCACCCAUGUAGAAGGCACAAAAA [Ex 2 sub 3]	–	–	28.6 nM	22.4 nM
AAAAAACAUGAGGAUCACCCAUGUGAGGAUAUGCUAAAAAAAUCCGCAUAAAAAAAUAGCAGAAGGCACAUAAA [PK1]	–	–	44.1 nM	25 nM
GGUUGGCGAGGAUAUACAUGAGGAUCACCCAUGUGAGAGAAAAAAGUGAGAAAGAUAAGUAGAAGGCGCUGACG [salish99-ex3-39]	–	–	169 nM	80.3 nM
AAAAAGUCAGGAUAUACGAACAUGUCAAAAGACGUGAAGGGACAUGAGGAUCACCCAUGUAGAAGGGACAAGAA [JL Stem Breaker 20]	–	–	39.6 nM	85.2 nM
AAAAAGGCAGGAUAUGCAUACUCACGGAAAAAAAGGUUGGGACAUGAGGAUCACCCAUGUAGAAGGGCUAAAAA [Dora Explored 15 - Jieux - Exclusion 2]	–	–	60.8 nM	85.2 nM
AAAGUACGAGGAUAUACAUAGAUACAGAUACAUGUAGACGUACAUGAGGAUCACCCAUGUAGAAGGCGUACAUA [Mat - Same state - Mayanna Mod - D115]	–	–	74.7 nM	154 nM
CUCUUGUGAGGAUAUAGAAGAAAAGAAGAGAAAGAAAAGAACUAGAAGGCACAUGAGGAUCACCCAUGUAAGAA [EteRNA is fun!]	–	–	39.9 nM	34.3 nM
AAAAAGGAAGGAUAUACGAACAUGUCAAAAGACGUGAAGGGACAUGAGGAUCACCCAUGUAGAAGGUUUAAAAA [JL Wide Open 25]	–	–	18.6 nM	39.3 nM
AGUCAUACAGGAUAUACAUGAGGAUCACCCAUGUUUAUCCUAAAAUAAAAAAAAACAUGUAGAAGGGUAUGACA [EX3 215: Super Stable 15]	–	–	14.1 nM	15.1 nM
AAUAAACAUGAGGAUCACCCAUGUCAGGAUAUCCUAAAUAAAAAAAUAUAAAGAAGAAGGAGAAGGGACUAAAA [Mystem Exclusion 1]	–	–	53.5 nM	47.2 nM
AAAAAGACAGGAUAUACAUGAAAAAAAAAAAAAAAAAAAAAACAUGAGGAUCACCCAUGUAGAAGGGUCAAAAA [Starry's Exclusion 2]	–	–	54.6 nM	71.6 nM
AAAAAACAUGAGGAUCACCCAUGUGAGGAUAUGACGUAAAUAAAGAAAGAAUAAAUCGUCAGAAGGCACAAAAA [Mat - Exclusion 1 - Eli mod - D72]	–	–	40.3 nM	31.4 nM
AAAAAGUCAGGAUAUGGCAAAGGUCACGAAAGUGACAAAGGCUAGAAGGGACAUGAGGAUCACCCAUGUAAAAA [Fiskers Exclusion 4 D3]	–	–	35.3 nM	53.4 nM
AAAAAGGGAGGAUAUACAUGAGGAUCACCCAUGUAAAAAAAAAAAAAAAAAAGGGAAGGUAGAAGGCCCAAAAA [Excls3-I]	–	–	21.1 nM	64.6 nM
AAGAAGCAAGGAUAUACAAAAUAAAAGAAAAGAAAGAAAGAACAUGAGGAUCACCCAUGUAGAAGGUGCAAGAA [Djedkheperew]	–	–	31 nM	31.1 nM
AAACGUAGAGGAUAUACGAAAAGAUUACGAAAGUAAUCGGGACAUGAGGAUCACCCAUGUAGAAGGCUACGAAA [Mod2 of Meechl 64% 3]	–	–	61 nM	27.1 nM
AAAAAGAUAGGAUAUACGUACAUGUCGAAAGACGUGAAGGGACAUGAGGAUCACCCAUGUAGAAGGAUUAAAAA [Mat - Exclusion 2 - JL mod - D90]	–	–	14.5 nM	43.8 nM
AAUAAGAGAGGAUAUACUAAAGAAAUGAAAAGAAAUAAAGAACAUGAGGAUCACCCAUGUAGAAGGCUCAAUAA [Bebnum]	–	–	24.6 nM	24.4 nM
AACAGUAGAGGAUAUACAUGAGGAUCACCCAUGUGAGAAACCACUGGCGUACCAGAAAGUAGAAGGCUACUGGA [Moding Maslow Revisited (73) 30]	–	–	34.6 nM	103 nM
AAAAAGAGAGGAUAUACAGGAGGACCACCACAAAAAAAAAUACAUGAGGAUCACCCAUGUAGAAGGCUCAAAAA [Default title]	–	–	66.1 nM	35.1 nM
